Literature values, collected in article PMC8622359.
Read-outs that look alike come from different tables or passages of the source.

How the values were obtained:
[1] = molecular target: SAC3B (Arabidopsis thaliana) (UniProt F4JAU2); assay: given as Ka
[2] = molecular target: AtRAD4 (Arabidopsis thaliana)
[3] = molecular target: AtRAD4 (Arabidopsis thaliana); remark: listed apart in the source
[4] = molecular target: SAC3B (Arabidopsis thaliana) (UniProt F4JAU2); assay: given as Ka; remark: listed apart in the source
[5] = molecular target: SAC3 (Saccharomyces cerevisiae) (UniProt P46674)
[6] = molecular target: SAC3 (Saccharomyces cerevisiae) (UniProt P46674); remark: listed apart in the source
[7] = molecular target: SAC3 (Saccharomyces cerevisiae); assay: given as Ka
[8] = molecular target: ScSFI1 (R19) (Saccharomyces cerevisiae); assay: given as Ka
ScSFI1 (R19) (Saccharomyces cerevisiae), sequence (Q12369 710-729): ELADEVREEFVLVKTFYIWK

[9] = molecular target: ScSFI1 (R18) (Saccharomyces cerevisiae); assay: given as Ka
ScSFI1 (R18) (Saccharomyces cerevisiae), sequence (Q12369 680-699): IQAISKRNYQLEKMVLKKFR

[10] = molecular target: SAC3 (Saccharomyces cerevisiae) (UniProt P46674); assay: given as Ka
[11] = molecular target: KAR1 (Saccharomyces cerevisiae) (UniProt P11927); assay: given as Ka
[12] = molecular target: KAR1 (Saccharomyces cerevisiae) (UniProt P11927); assay: given as Ka; remark: listed apart in the source
[13] = molecular target: ScSFI1 (R18) (Saccharomyces cerevisiae); assay: given as Ka; remark: listed apart in the source
[14] = molecular target: ScSFI1 (R19) (Saccharomyces cerevisiae); assay: given as Ka; remark: listed apart in the source
[15] = molecular target: HsSFI1 (R18) (Homo sapiens); assay: given as Ka
HsSFI1 (R18) (Homo sapiens), sequence (A8K8P3 670-692): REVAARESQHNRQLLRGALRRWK

[16] = molecular target: Transducin β (Homo sapiens) (UniProt P62873); assay: given as Ka
[17] = molecular target: HsSFI1 (R18) (Homo sapiens); assay: given as Ka; remark: listed apart in the source
[18] = molecular target: HsSFI1 (R17) (Homo sapiens); assay: given as Ka
HsSFI1 (R17) (Homo sapiens), sequence (A8K8P3 641-660): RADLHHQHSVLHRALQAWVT

XPC (Homo sapiens) [19] = assay: given as Ka
XPC (Homo sapiens) [20] = assay: given as Ka; remark: listed apart in the source
[21] = molecular target: HsSFI1 (R17) (Homo sapiens); assay: given as Ka; remark: listed apart in the source
PRP40A (Homo sapiens) = PRP40A (Homo sapiens) (UniProt O75400); assay: given as Ka
PRP40A (Homo sapiens), sequence (O75400 524-556): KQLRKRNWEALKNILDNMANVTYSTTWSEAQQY

CDC31, sequence (P06704 whole entry): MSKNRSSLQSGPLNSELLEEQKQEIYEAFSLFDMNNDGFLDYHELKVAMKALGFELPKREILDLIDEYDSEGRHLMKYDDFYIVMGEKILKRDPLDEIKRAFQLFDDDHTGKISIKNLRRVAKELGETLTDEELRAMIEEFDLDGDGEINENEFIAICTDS
HsCEN2, sequence (P41208 2-172): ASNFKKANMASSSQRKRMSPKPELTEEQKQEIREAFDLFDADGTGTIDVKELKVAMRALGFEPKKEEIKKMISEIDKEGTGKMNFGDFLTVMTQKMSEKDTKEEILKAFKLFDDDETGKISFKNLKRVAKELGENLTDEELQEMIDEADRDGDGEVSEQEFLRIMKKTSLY
HsCEN1, sequence (Q12798 whole entry): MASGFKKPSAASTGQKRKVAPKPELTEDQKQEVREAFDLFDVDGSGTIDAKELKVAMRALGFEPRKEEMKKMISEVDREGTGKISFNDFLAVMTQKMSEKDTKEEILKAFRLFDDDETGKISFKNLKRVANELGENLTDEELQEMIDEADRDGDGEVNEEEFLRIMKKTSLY
AtCEN2, sequence (O23184 whole entry): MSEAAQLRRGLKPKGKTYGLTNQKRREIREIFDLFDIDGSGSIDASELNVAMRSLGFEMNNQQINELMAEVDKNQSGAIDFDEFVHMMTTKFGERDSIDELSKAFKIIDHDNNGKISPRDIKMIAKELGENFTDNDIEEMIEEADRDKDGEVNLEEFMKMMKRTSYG
SAC3B (Arabidopsis thaliana), sequence (F4JAU2 1050-1075): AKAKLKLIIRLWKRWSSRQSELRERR

AtCEN2 (from UniProt O23184)
Kd [1]: 2440 nM | Kd [2]: 8000 nM | Kd [3]: 54 nM | Kd [4]: 667 nM

CDC31 (from UniProt P06704)
Kd [5]: 45 nM | Kd [6]: 677 nM | Kd [7]: 45.5 nM | Kd [8]: 5260 nM | Kd [9]: 100 nM | Kd [10]: 667 nM | Kd [11]: 43.5 nM | Kd [12]: 2270 nM | Kd [13]: 4170 nM | Kd [14]: 28.6 nM

HsCEN1 (from UniProt Q12798)
Kd [15]: 333000 nM | Kd [16]: 5880 nM | Kd [17]: 831 nM

HsCEN2 (from UniProt P41208)
Kd [18]: 4000 nM | Kd (XPC (Homo sapiens) [19]): 125 nM | Kd (XPC (Homo sapiens) [20]): 5.88 nM | Kd [21]: 154 nM | Kd (PRP40A (Homo sapiens)): 278 nM
